Target: T1, Pick bodies (cellular inclusions of Pick's disease, only constituted of 3R tau proteins) (human, UniProt P10636-5 2-410, limits assumed)
T1 construct: Target in tissue sections (IHC)
Experiment: IHC on human paraffin sections, Pick's disease
Method: Immunohistochemistry was performed on formalin-fixed tissues (paraffin-embedded or frozen sections or vibratome sections). Standard IHC protocols were applied and adapted for each tissue conditions. As most of immunostaining experiments were performed using paraffin sections, a detailed protocol for paraffin-embedded material is described herein. Immunostaining of brain tissue was performed on 4 µm thick paraffin sections. Both human and mouse tissues were used (Human patients with AD or other tauopathies and Tg4510 mice (Santacruz et al. 2005 Science, 309, 476-481). Sections were de-paraffinized in xylene, rehydrated through ethanol (100%, 90%, and 70%), 5 min for each solution and finally brought to running tap water for 10 min. They were then incubated in 98% formic acid for 5 min, washed again under running tap water, quenched for endogenous peroxidase with 3% hydrogen peroxide and 20% methanol, and finally washed in water. Non-specific binding was blocked by incubating the sections for 30 min in 2% bovine serum albumin in TBS+0.5% Tween. Appropriate dilutions of primary antibodies (1-10 µg/ml of VHH with either His or Strep tag) were then applied and slices incubated overnight in a humidified chamber at 4° C. […]

T1 sequence (P10636 other isoform, or with tags, fused parts or gaps limits assumed): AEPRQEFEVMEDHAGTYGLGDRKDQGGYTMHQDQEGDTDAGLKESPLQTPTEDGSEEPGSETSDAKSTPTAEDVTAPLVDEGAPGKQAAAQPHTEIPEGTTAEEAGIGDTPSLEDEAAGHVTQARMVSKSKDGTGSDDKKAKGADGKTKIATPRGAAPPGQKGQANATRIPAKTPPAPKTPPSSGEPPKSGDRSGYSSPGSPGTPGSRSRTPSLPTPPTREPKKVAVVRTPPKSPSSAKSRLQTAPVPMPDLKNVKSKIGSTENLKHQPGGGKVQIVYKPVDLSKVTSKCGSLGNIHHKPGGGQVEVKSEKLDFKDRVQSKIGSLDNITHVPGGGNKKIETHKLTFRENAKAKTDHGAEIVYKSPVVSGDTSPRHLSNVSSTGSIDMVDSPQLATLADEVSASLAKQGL

B1: VHH Tau-A2 (VHH)
VHH: EVQLQASGGGLVQAGGSLRLSCAASGRSFSGSTMEWYRQAPGKERKFVAAIRTISSRTYYVDSVKGRFTISRDSTKNTVYLQLNSLKVEDTAVYYCAARFSGTIGTTSSVDYWGQGTQVTVSS
notes: Alpaca VHH, expressed in E. coli with a His-tag or a Strep-tag; monomeric by DLS; not shown: 6-Histidine tag (pET23d) or C-terminal Strep-tag (pASK IBA2)
Does B1 bind?
Result: no binding

— patent publication US10087245 (Hoffmann-La Roche, dated 2018)
